Bridges are numbered along the chain shown (N, C = ends). Roman numbers before positions name the chains, in order. [ ]: non-standard residue; d: D form.
B1: N0N(PIE7)2 (peptide)
peptide: Ac-[dK]G[dA][dC][dD][dY][dP][dE][dW][dQ][dW][dL][dC][dA][dA]-NH2
modifications: disulfide 4-13 (inferred); also: dimer, N- to N-terminal link by zero length spacer
B2: N0C(PIE7)2 (peptide)
peptide: Ac-[dK]G[dA][dC][dD][dY][dP][dE][dW][dQ][dW][dL][dC][dA][dA]-NH2
modifications: disulfide 4-13 (inferred); also: dimer linked N- to C-terminal by zero-length spacer
B3: C0C(PIE7-GK)3 (peptide)
peptide 1: Ac-G[dA][dC][dD][dY][dP][dE][dW][dQ][dW][dL][dC][dA][dA]G[dK]-NH2
peptide 2: Ac-G[dA][dC][dD][dY][dP][dE][dW][dQ][dW][dL][dC][dA][dA]G[dK][dK]-NH2
modifications: disulfide I:3-I:12, II:3-II:12 (inferred); also: trimer, C-terminal Lys residues linked by zero length spacers
B4: C5C(PIE7-GK)3 (peptide)
peptide 1: Ac-G[dA][dC][dD][dY][dP][dE][dW][dQ][dW][dL][dC][dA][dA]G[dK]-NH2
peptide 2: Ac-G[dA][dC][dD][dY][dP][dE][dW][dQ][dW][dL][dC][dA][dA]G[dK][dK]-NH2
modifications: disulfide I:3-I:12, II:3-II:12 (inferred); also: trimer: C-terminal Lys linked by PEG5 spacers
B5: PEG5-(PIE13)2 (peptide)
peptide: Ac-[dH][dP][dC][dD][dY][dP][dE][dW][dQ][dW][dL][dC]K[dL]G[dK]-NH2
modifications: disulfide 3-12 (inferred); not fully specified (residue 13); also: dimer crosslinked by PEG5 via internal Lys

biological target: HIV-1 HXB2 envelope glycoprotein gp41 (N-trimer of the prehairpin intermediate) (HIV-1 strain HXB2, UniProt P04578 512-856); assay: cell-based or functional assay

Row | Binder | IC50, HXB2 pseudovirion entry [nM]
1 | Ac-[dK]G[dA][dC][dD][dY][dK][dE][dW][dQ][dW][dL][dC][dA][dA]-NH2 (disulfide 4-13 (inferred)) [PIE8] | 1.7
2 | Ac-G[dA][dC][dD][dY][dP][dE][dW][dQ][dW][dL][dC][dA][dA]G[dK]-NH2 (disulfide 3-12 (inferred); also: dimer, C- to C-terminal link by PEG5 spacer) [C5C(PIE7-GK)2] | 0.36
3 | Ac-[dK]G[dA][dC][dD][dY][dP][dE][dW][dQ][dW][dL][dC][dA][dA]-NH2 (disulfide 4-13 (inferred); also: trimer linked by PEG9 spacers) [N9N(PIE7)3] | 0.25
4 | Ac-[dH][dP][dC][dD][dY][dP][dE][dW][dQ][dW][dL][dC][dR][dL]G[dK]-NH2 (disulfide 3-12 (inferred)) [PIE14] | 33
5 | Ac-G[dA][dC][dD][dY][dP][dE][dW][dQ][dW][dL][dC][dA][dA]G[dK]-NH2 (disulfide 3-12 (inferred); also: linked to trifunctional crosslinker LC-TSAT) [PIE7-GK long claw] | 0.12
6 | B1 | 0.8
7 | Ac-[dK]G[dA][dC][dD][dY][dP][dE][dW][dQ][dW][dL][dC][dA][dA]-NH2 (disulfide 4-13 (inferred); also: dimer linked N- to C-terminal by PEG5 spacer) [N5C(PIE7)2] | 0.58
8 | Ac-[dK]G[dA][dC][dD][dY][dP][dE][dW][dR][dW][dL][dC][dA][dA][dA]-NH2 (disulfide 4-13 (inferred)) [PIE2-AAA] | 1.4
9 | Ac-G[dA][dC][dD][dY][dP][dE][dW][dQ][dW][dL][dC][dA][dA]G[dK]-NH2 (disulfide 3-12 (inferred); also: dimer, C- to C-terminal link by PEG9 spacer) [C9C(PIE7-GK)2] | 0.35
10 | Ac-G[dA][dC][dD][dY][dP][dE][dW][dQ][dW][dL][dC][dA][dA]G[dK]-NH2 (disulfide 3-12 (inferred)) [PIE7-GK] | 390
11 | Ac-[dK][dK]G[dA][dC][dE][dL][dL]G[dW][dE][dW][dA][dW][dL][dC][dA][dA]-NH2 (disulfide 5-16 (inferred)) [D10-p5] | 9.5
12 | Ac-[dH][dP][dC][dD][dY][dP][dE][dW][dQ][dW][dL][dC][dK][dL]G[dK]-NH2 (disulfide 3-12 (inferred)) [PIE13] | 41
13 | Ac-[dH][dA][dC][dD][dY][dP][dE][dW][dQ][dW][dL][dC][dE][dL]G[dK]-NH2 (disulfide 3-12 (inferred)) [PIE15] | 67
14 | Ac-[dK][dK]G[dA][dC][dD][dY][dP][dE][dW][dR][dW][dL][dC][dA][dA]-NH2 (disulfide 5-14 (inferred)) [2K-PIE2] | 2.6
15 | Ac-[dK][dK]G[dA][dC][dE][dS][dP][dE][dW][dR][dW][dL][dC][dA][dA]-NH2 (disulfide 5-14 (inferred)) [2K-PIE1] | 2.2
16 | B2 | 0.53
17 | Ac-[dK]G[dA][dC][dD][dY][dP][dE][dW][dQ][dW][dL][dC][dA][dA]-NH2 (disulfide 4-13 (inferred); also: dimer linked N- to C-terminal by PEG9 spacer) [N9C(PIE7)2] | 0.33
18 | Ac-G[dA][dC][dD][dY][dP][dE][dW][dQ][dW][dL][dC][dA][dA]G[dK][dK]-NH2 (disulfide 3-12 (inferred)) [PIE7-GKK] | 380
19 | B3 | 0.12
20 | B4 | 0.13
21 | Ac-[dK]G[dA][dC][dD][dY][dP][dE][dW][dQ][dW][dL][dC][dA][dA]-NH2 (disulfide 4-13 (inferred); also: dimer, N- to N-terminal link by PEG5 spacer) [N5N(PIE7)2] | 1.1
22 | Ac-G[dA][dC][dD][dY][dP][dE][dW][dQ][dW][dL][dC][dA][dA]G[dK]-NH2 (disulfide 3-12 (inferred); also: PEG4 attached at the C-terminus) [PIE7-GK-PEG4] | 350
23 | Ac-[dK]G[dA][dC][dD][dY][dP][dE][dW][dQ][dW][dL][dC][dA][dA]-NH2 (disulfide 4-13 (inferred)) [PIE7] | 620

biological target: HIV-1 JRFL envelope glycoprotein gp41 (N-trimer of the prehairpin intermediate) (HIV-1 strain JRFL); assay: cell-based or functional assay

Row | Binder | IC50, JRFL pseudovirion entry [nM]
24 | Ac-[dK]G[dA][dC][dD][dY][dK][dE][dW][dQ][dW][dL][dC][dA][dA]-NH2 (disulfide 4-13 (inferred)) [PIE8] | ~110000
25 | Ac-G[dA][dC][dD][dY][dP][dE][dW][dQ][dW][dL][dC][dA][dA]G[dK]-NH2 (disulfide 3-12 (inferred); also: dimer, C- to C-terminal link by PEG5 spacer) [C5C(PIE7-GK)2] | 200
26 | Ac-[dK]G[dA][dC][dD][dY][dP][dE][dW][dQ][dW][dL][dC][dA][dA]-NH2 (disulfide 4-13 (inferred); also: trimer linked by PEG9 spacers) [N9N(PIE7)3] | 220
27 | Ac-[dH][dP][dC][dD][dY][dP][dE][dW][dQ][dW][dL][dC][dR][dL]G[dK]-NH2 (disulfide 3-12 (inferred)) [PIE14] | 1050
28 | Ac-G[dA][dC][dD][dY][dP][dE][dW][dQ][dW][dL][dC][dA][dA]G[dK]-NH2 (disulfide 3-12 (inferred); also: linked to trifunctional crosslinker LC-TSAT) [PIE7-GK long claw] | 20.6
29 | B1 | 1090
30 | Ac-[dK]G[dA][dC][dD][dY][dP][dE][dW][dQ][dW][dL][dC][dA][dA]-NH2 (disulfide 4-13 (inferred); also: dimer linked N- to C-terminal by PEG5 spacer) [N5C(PIE7)2] | 300
31 | Ac-[dK]G[dA][dC][dD][dY][dP][dE][dW][dR][dW][dL][dC][dA][dA]-NH2 (disulfide 4-13 (inferred)) [PIE2] | 66000
32 | Ac-[dK]G[dA][dC][dD][dY][dP][dE][dW][dQ][dW][dL][dC][dA][dA]G[dK]-NH2 (disulfide 4-13 (inferred)) [K-PIE7-GK] | 14800
33 | Ac-G[dA][dC][dD][dY][dP][dE][dW][dQ][dW][dL][dC][dA][dA]G[dK]-NH2 (disulfide 3-12 (inferred); also: dimer, C- to C-terminal link by PEG9 spacer) [C9C(PIE7-GK)2] | 220
34 | Ac-G[dA][dC][dD][dY][dP][dE][dW][dQ][dW][dL][dC][dA][dA]G[dK]-NH2 (disulfide 3-12 (inferred)) [PIE7-GK] | 15800
35 | Ac-[dK][dK]G[dA][dC][dE][dL][dL]G[dW][dE][dW][dA][dW][dL][dC][dA][dA]-NH2 (disulfide 5-16 (inferred)) [D10-p5] | > 25000
36 | Ac-[dH][dP][dC][dD][dY][dP][dE][dW][dQ][dW][dL][dC][dK][dL]G[dK]-NH2 (disulfide 3-12 (inferred)) [PIE13] | 1470
37 | Ac-[dH][dA][dC][dD][dY][dP][dE][dW][dQ][dW][dL][dC][dE][dL]G[dK]-NH2 (disulfide 3-12 (inferred)) [PIE15] | 1450
38 | Ac-[dK][dK]G[dA][dC][dE][dS][dP][dE][dW][dR][dW][dL][dC][dA][dA]-NH2 (disulfide 5-14 (inferred)) [2K-PIE1] | > 100000
39 | B2 | 400
40 | Ac-[dK]G[dA][dC][dD][dY][dP][dE][dW][dQ][dW][dL][dC][dA][dA]-NH2 (disulfide 4-13 (inferred); also: dimer linked N- to C-terminal by PEG9 spacer) [N9C(PIE7)2] | 310
41 | Ac-[dH][dP][dC][dD][dY][dP][dE][dW][dQ][dW][dL][dC][dE][dL]G[dK]-NH2 (disulfide 3-12 (inferred); also: dimer, C- to C-terminal link by PEG5 spacer) [C5C(PIE12)2] | 14
42 | Ac-G[dA][dC][dD][dY][dP][dE][dW][dQ][dW][dL][dC][dA][dA]G[dK][dK]-NH2 (disulfide 3-12 (inferred)) [PIE7-GKK] | 19100
43 | B3 | 16.1
44 | B4 | 6.7
45 | Ac-[dK]G[dA][dC][dD][dY][dP][dE][dW][dQ][dW][dL][dC][dA][dA]-NH2 (disulfide 4-13 (inferred); also: dimer, N- to N-terminal link by PEG5 spacer) [N5N(PIE7)2] | 1410
46 | Ac-G[dA][dC][dD][dY][dP][dE][dW][dQ][dW][dL][dC][dA][dA]G[dK]-NH2 (disulfide 3-12 (inferred); also: PEG4 attached at the C-terminus) [PIE7-GK-PEG4] | 13100
47 | B5 | 15
48 | Ac-[dK]G[dA][dC][dD][dY][dP][dE][dW][dQ][dW][dL][dC][dA][dA]-NH2 (disulfide 4-13 (inferred)) [PIE7] | 24000

Reference: patent publication US20140323392A1 (UNIVERSITY OF UTAH RESEARCH FOUNDATION, published 2014)
